The source of these data is US20030108991.

This series has as its target T1, N-Succinyl-Ala-Ala-Pro-Phe-p-nitroanilide.
T1 chain: AAPF

As a reminder, the Km is the substrate concentration at which the rate is half of its maximum.

B1: soluble keratinase (Bacillus licheniformis PWD-1 keratinase) (protein)
chain: AQTVPYGIPLIKADKVQAQGFKGANVKVAVLDTGIQASHPDLNVVGGASFVAGEAYNTDGNGHGTHVAGTVAALDNTTGVLGVAPSVSLYAVKVLNSSGSGSYSGIVSGIEWATTNGMDVINMSLGGASGSTAMKQAVDNAYARGVVVVAAAGNSGSSGNTNTIGYPAKYDSVIAVGAVDSNSNRASFSSVGAELEVMAPGAGVYSTYPTNTYATLNGTSMVSPHVAGAAALILSKHPNLSASQVRNRLSSTATYLGSSFYYGKGLINVEAAAQ
With B1, the Km was 220 µM.
